Assay results taken from the supplement of paper PMC10567573.

B1: INTS3 (parent)
chain: EEITEESLEESVGKPLYLIFRNLC
B2: HSP90AB1 (parent)
chain: YHTSQSGDEMTSLSEYVSRMKETQ

Variants of: B1
Test: protein stability index of a GFP-peptide fusion (GPS, HEK-293T) (PSI 1-6); higher = more stable
Details: c terminus: a fixed tail appended
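Note: lentivirally expressed fusions sorted by FACS into six bins by GFP to DsRed ratio, PSI derived from sequencing read proportions per bin multiplied by bin number.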

Protein stability index: each site, then its substitutions
L23: E 3.98; M 2.74; K 4.52; S 3.67; V 3.39; W 2.85; D 3.75; G 3.62; Y 2.68; I 2.63; Q 4.17; R 3.47; P 3.82; H 3.19; T 3.4; A 3.74; F 3.14; C 3.54; N 3.47
C24: H 2.88; N 3.33; T 2.66; E 3.54; K 3.11; F 2.99; P 2.62; A 2.87; L 2.16; M 2.7; S 2.55; D 3.48; R 3.02; I 2.32; Y 2.32; V 1.68; Q 2.19; G 2.54; W 2.08
R21: E 2.64; W 2.1; C 2.62; N 2.96; V 2.09; T 2.61; H 3.08; D 3.46; I 1.63; L 1.9; K 2.61; S 2.95; Y 2.03; A 2.77; P 3.53; F 2.03; Q 2.77; M 2.1; G 3.1
N22: R 2.96; F 2.94; K 2.56; L 3.01; Y 2.06; G 2.19; V 1.55; W 1.68; I 2.05; A 2.26; C 2.83; P 2.54; T 2.15; M 2.33; S 2.79; E 2.8; D 3.4; Q 2.42; H 2.64
F20: V 2.55; Y 2.71; S 3.77; W 2.35; T 3.6

Variants of: B2
Test: as above
Details: c terminus: a fixed tail appended

Protein stability index: each site, then its substitutions
V17: Q 4.04; D 4.57; A 3.85; L 3.56; H 3.54; C 3.27; W 2.41; E 4.49; N 4.12; G 3.76; T 3.72; K 4.08; R 4.27
D8: N 3.33; V 3.47; E 4.24; C 2.58; Y 2.26; I 2.32; K 3.24; F 3.44; H 2.92
E15: D 3.02; I 2.37; L 1.99; G 2.68; N 3.77; Q 3.15; S 2.87; V 1.89; K 3.48; P 1.87; Y 2.65
K21: W 2.64; E 4.2; D 4.08; V 3.58; A 3.71; Q 3.32; C 3.47; N 3.88; M 3.13; P 3.63; L 3.52
G7: D 4.08; C 3.33; E 4.12; F 3.17; A 3.73; N 2.83; Y 2.98; I 3.29; K 3.33; Q 3.78; M 3.47; T 4.32; S 3.67
S14: K 3.5; W 1.81; M 3.25; E 4.31; A 3.66; Y 3.11; L 2.65; P 3.74; N 3.24; T 3.71; Q 3.54
E9: P 3.51; C 2.48; F 2.33; Y 2.58; A 2.78; D 3.79; H 3.11; T 3.66; V 3.12; L 2.09; W 1.87; I 2.77; S 2.91; R 1.99; G 3.67
S4: L 2.48; G 3.02; I 2.51; N 3.39; E 4.38; H 3.38; A 3.86; V 3.12; T 3.99
T11: W 2.01; C 3.62; N 3.56; Y 2.74; G 3.77; M 3.07; S 3.62; P 3.57; V 3.68; F 2.78; A 3.51
M10: G 4.1; Q 4.05; R 3.9; P 4.17; W 2.12; L 3.32; I 4.08; S 3.87; C 4.05; E 4.54; K 4.04; H 3.46; V 3.74
M20: L 3.42; C 3.81; G 4.37; I 3.29; A 4.62; N 4.1; E 3.73; R 4.26; T 4.27; D 4.46
S18: H 3.35; K 3.53; C 2.87; P 3.92; T 3.81; E 3.8; R 3.6
E22: V 4.22; C 4.17; G 3.33; H 3.05; F 3.71; P 3.17; W 1.79; A 3.07; D 3.83; N 3.84; L 3.54; Q 3.94
Y16: N 4.3; R 3.98; C 4.16; I 3.09; H 4.1; Q 4.17; K 3.53; S 4.22; D 4.74; A 4.17; G 4
Q24: G 3.52; R 3.53; V 3.19; A 3.26; Y 3.1; D 4.06; N 3.62; K 3.43; C 3.18; E 3.94
S12: I 2.92; H 3.52; Y 2.81; W 2.6; F 2.98; C 2.87; T 3.88; N 3.64; A 3.21
T3: H 3.67; N 3.42; K 3.48; E 3.07; R 3.8; F 2.96; M 3.12
T23: E 2.89; M 3.29; C 3.23; D 4.52; W 2.79; G 4.12; K 3.78; S 3.5; P 3.33
S6: N 4.08; A 3.54; C 3.22; L 3.26; T 3.46; R 3.56; I 2.98; W 1.88; E 4.15; V 3.21
H2: P 5; M 3.61; T 4.67; G 4.62; I 3.46; C 3.57; N 3.92; V 2.83; K 4.66; D 4.45; S 4.42; W 3.52
Y1: N 4.77; T 5.02; D 4.48; A 4.7; K 4.29; C 4.49; M 4.06; P 5.09; I 4.49; Q 4.61
L13: P 3.74; Q 4.59; M 4.04; G 4.27; D 4.11; F 2.18; E 4.62; V 3.32; K 3.82; R 4.21; I 3.5; A 4.37
R19: K 4.27; N 4.32; M 3.89; P 3.47; L 3.22; E 4.66; A 3.72
Q5: R 3; A 3.66; E 3.79; M 3.67; L 2.83; C 3.17; F 2.35; T 3.91; H 3.67; Y 3.21; I 2.64
